This sample holds only a part of the variants without activity.
Tests used:
biotinyl-Val-oxazolone = experiment: self-aminoacylation, catalytic enhancement (BVO) (fold over background); higher = more active; k-Seq, kA / k0A0; sequences stand for … in GGGAAUGGAUCCACAUCUACGAAUUC…UUCACUGCAGACUUGACGAAGCUG
Summary of the method: (§1)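 Each biotinyl-aminoacyl-oxazolone, at 2–1250 μM, was incubated with mutagenized RNA pools (0.43 μM) carrying a 21-nt variable region. The 50 μL reactions contained HEPES/NaCl/KCl/MgCl2/CaCl2 buffer with 5% acetonitrile at pH 6.9–7.0 and ran for 90 minutes at room temperature. After streptavidin capture, RNA was measured by qPCR in triplicate and by Illumina sequencing, and catalytic enhancement was calculated as median kA over the uncatalyzed rate from a pseudo-first-order fit of per-sequence fraction reacted.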

biotinyl-Leu-oxazolone = experiment: self-aminoacylation, catalytic enhancement (BLO) (fold over background); higher = more active; k-Seq, kA / k0A0; sequences stand for … in GGGAAUGGAUCCACAUCUACGAAUUC…UUCACUGCAGACUUGACGAAGCUG
Summary of the method: as §1

biotinyl-Ile-oxazolone = experiment: self-aminoacylation, catalytic enhancement (BIO) (fold over background); higher = more active; k-Seq, kA / k0A0; sequences stand for … in GGGAAUGGAUCCACAUCUACGAAUUC…UUCACUGCAGACUUGACGAAGCUG
Summary of the method: as §1

biotinyl-Phe-oxazolone = experiment: self-aminoacylation, catalytic enhancement (BFO) (fold over background); higher = more active; k-Seq, kA / k0A0; sequences stand for … in GGGAAUGGAUCCACAUCUACGAAUUC…UUCACUGCAGACUUGACGAAGCUG
Summary of the method: as §1

biotinyl-Met-oxazolone = experiment: self-aminoacylation, catalytic enhancement (BMO) (fold over background); higher = more active; k-Seq, kA / k0A0; sequences stand for … in GGGAAUGGAUCCACAUCUACGAAUUC…UUCACUGCAGACUUGACGAAGCUG
Summary of the method: as §1

biotinyl-Trp-oxazolone = experiment: self-aminoacylation, catalytic enhancement (BWO) (fold over background); higher = more active; k-Seq, kA / k0A0; sequences stand for … in GGGAAUGGAUCCACAUCUACGAAUUC…UUCACUGCAGACUUGACGAAGCUG
Summary of the method: as §1

| Sequence | self-aminoacylation (biotinyl-Val-oxazolone) | self-aminoacylation (biotinyl-Leu-oxazolone) | self-aminoacylation (biotinyl-Ile-oxazolone) | self-aminoacylation (biotinyl-Phe-oxazolone) | self-aminoacylation (biotinyl-Met-oxazolone) | self-aminoacylation (biotinyl-Trp-oxazolone) |
| --- | --- | --- | --- | --- | --- | --- |
| AUUCACCUAGACCAUCGGGUG [Fam2.2 aminoacylation ribozyme variant] | 3.62 | 5.27 | 2.48 | 22.4 | 4.26 | 3.81 |
| GUACUUCAAACAAACGGUCUG [Fam1A.1 aminoacylation ribozyme variant] | 1.15 | 1.31 | 1.43 | 1.72 | 1.22 | 1.15 |
| CCACACGUCAAGCAAUCGUUC [Fam1B.1 aminoacylation ribozyme variant] | 1.03 | 0.842 | 0.799 | 0.752 | 1.17 | 1.01 |
| CUGCUUCAGACAAUCGGUCUG [Fam1A.1 aminoacylation ribozyme variant] | 0.929 | 1.1 | 0.949 | 1.78 | 1.22 | 1.28 |
| AUUAUCCUGAUCAUCGAGUGA [Fam2.1 aminoacylation ribozyme variant] | 4.92 | 11.4 | 4.92 | 60 | 11.1 | 11.8 |
| CCCAACUUCAAGCAAUCGGUC [Fam1B.1 aminoacylation ribozyme variant] | 1.74 | 2.34 | 1.56 | 78.4 | 1.49 | 40.9 |
| AGUACCCUGGCCAUCGAGUGA [Fam2.1 aminoacylation ribozyme variant] | 3.11 | 4.09 | 2.53 | 10.2 | 3.41 | 4.09 |
| AAGUUUGCUAAUUGUCGCCAG [Fam3.1 aminoacylation ribozyme variant] | 1.39 | 1.49 | 1.49 | 5.34 | 1.53 | 1.73 |
| AUGACCUUGGUCAUCGAGUGA [Fam2.1 aminoacylation ribozyme variant] | 3.1 | 5.27 | 3.22 | 22.3 | 5.23 | 6.29 |
| AAGUUUGCUAAUAGUCGUCAG [Fam3.1 aminoacylation ribozyme variant] | 0.905 | 0.715 | 0.795 | 2.16 | 0.638 | 1.26 |
| AUUAACCUGGUCAUCGAGUGC [Fam2.1 aminoacylation ribozyme variant] | 1.1 | 1.18 | 0.994 | 0.898 | 1.25 | 0.854 |
| AAUCACCUAGGUCAUCGGGUC [Fam2.2 aminoacylation ribozyme variant] | 1.63 | 1.37 | 1.79 | 7.16 | 1.81 | 1.21 |
| CCACACUCCAAGCACUCGGUC [Fam1B.1 aminoacylation ribozyme variant] | 1.24 | 0.768 | 1.35 | 0.642 | 1.32 | 0.831 |
| AAGUUUGCUAAUAGUCACUAG [Fam3.1 aminoacylation ribozyme variant] | 0.939 | 0.836 | 1.08 | 1.1 | 0.981 | 1.13 |
| CAACUUCAAACAACCGGUCUG [Fam1A.1 aminoacylation ribozyme variant] | 1.32 | 1.14 | 1.24 | 3.54 | 1.11 | 1.75 |
| AAGUUUGCUCUUAGUCGCAAG [Fam3.1 aminoacylation ribozyme variant] | 0.813 | 0.786 | 0.73 | 1.53 | 0.758 | 0.65 |
| AAUCACUUAGGUCAUCGGGUG [Fam2.2 aminoacylation ribozyme variant] | 4.61 | 7.59 | 5.09 | 43 | 7.21 | 8.45 |
| AUUACCCUGAUCAUUGAGUGA [Fam2.1 aminoacylation ribozyme variant] | 5.87 | 12.2 | 5.87 | 68.4 | 12.9 | 15.6 |
| AUUACCGUGGUCAUCGCGUGA [Fam2.1 aminoacylation ribozyme variant] | 11 | 21.5 | 8.94 | 140 | 17.7 | 22.2 |
| AUUCACCUAGGUCCUCGCGUG [Fam2.2 aminoacylation ribozyme variant] | 4.96 | 10.4 | 4.84 | 51.4 | 7.68 | 6.43 |
| GCACACUUCAAGCAAUCCGUC [Fam1B.1 aminoacylation ribozyme variant] | 1.98 | 1.71 | 1.66 | 1.76 | 1.2 | 2.01 |
| AGUACCCUGGUCAUCUAGUGA [Fam2.1 aminoacylation ribozyme variant] | 3.93 | 8.87 | 3.73 | 47.9 | 7.51 | 8.37 |
| AAUCACCUAGGUCAUCUGGUG [Fam2.2 aminoacylation ribozyme variant] | 1.67 | 2.27 | 1.96 | 11.2 | 2.08 | 2.52 |
| CUGCUUCAAACAAUCGGUCCG [Fam1A.1 aminoacylation ribozyme variant] | 1.38 | 2.38 | 1.35 | 119 | 1.34 | 39.6 |
| CCACACAUCAAGCAAUGGGUC [Fam1B.1 aminoacylation ribozyme variant] | 1.08 | 0.806 | 1.08 | 1.33 | 0.97 | 0.706 |
| AUAUCCCUGGUCAUCGAGUGA [Fam2.1 aminoacylation ribozyme variant] | 5.25 | 9.81 | 5.36 | 10.5 | 10.3 | 11.8 |

| Sequence | self-aminoacylation (biotinyl-Val-oxazolone) | self-aminoacylation (biotinyl-Leu-oxazolone) | self-aminoacylation (biotinyl-Ile-oxazolone) | self-aminoacylation (biotinyl-Phe-oxazolone) | self-aminoacylation (biotinyl-Met-oxazolone) | self-aminoacylation (biotinyl-Trp-oxazolone) |
| --- | --- | --- | --- | --- | --- | --- |
| CCACACAUCAAGCAAUCGUUC [Fam1B.1 aminoacylation ribozyme variant] | 0.783 | 0.722 | 0.807 | 0.673 | 0.617 | 0.543 |
| CCACACCUUAAGCAAUCGGUC [Fam1B.1 aminoacylation ribozyme variant] | 1.19 | 1.03 | 1.16 | 0.93 | 1.15 | 0.714 |
| AAUCACCUAGGUCAUCGGCUG [Fam2.2 aminoacylation ribozyme variant] | 2.34 | 2.14 | 2.3 | 10.9 | 3.21 | 2.68 |
| ACUCACCUAGGUCAUCGGAUG [Fam2.2 aminoacylation ribozyme variant] | 1.02 | 0.812 | 1.13 | 0.718 | 0.912 | 1.48 |
| AAGUUAGCUAAUAGUCGCAAA [Fam3.1 aminoacylation ribozyme variant] | 1.39 | 1.64 | 2.01 | 2.51 | 1.47 | 1.06 |
| CAGUUUGCUAAAAGUCGCAAG [Fam3.1 aminoacylation ribozyme variant] | 1.4 | 1.5 | 1.46 | 1.86 | 1.64 | 1.3 |
| CUACUUCAAGCAAUCGGUUUG [Fam1A.1 aminoacylation ribozyme variant] | 1.03 | 1.35 | 1.11 | 11.5 | 0.981 | 8.79 |
| CCACACUUCAAGCAUUCGCUC [Fam1B.1 aminoacylation ribozyme variant] | 2.88 | 2.41 | 2.27 | 2.04 | 2.42 | 2.64 |
| CCACAAUUCAAGCAAUGGGUC [Fam1B.1 aminoacylation ribozyme variant] | 1.03 | 1.17 | 1.22 | 0.531 | 1.13 | 0.734 |
| AAGUGGGCUAAUAGUCGCAAG [Fam3.1 aminoacylation ribozyme variant] | 1.32 | 1.44 | 1.6 | 2.27 | 1.56 | 1.73 |
| AAUUUUGCUAAUAGUCGGAAG [Fam3.1 aminoacylation ribozyme variant] | 1.03 | 1.22 | 1.23 | 3.1 | 1.13 | 1.2 |
| AUUACCCUGGUCCCCGAGUGA [Fam2.1 aminoacylation ribozyme variant] | 8.55 | 15.6 | 6.57 | 113 | 15.2 | 17.3 |
| AAUCACCUAAGUCAUCGGGUG [Fam2.2 aminoacylation ribozyme variant] | 4.44 | 7.68 | 4.89 | 44.5 | 6.3 | 7.91 |
| AUUCACGUAGGUCAUCGCGUG [Fam2.2 aminoacylation ribozyme variant] | 9.95 | 15.8 | 7.52 | 119 | 16 | 11.1 |
| AUUCACCUAGGUCUUCUGGUG [Fam2.2 aminoacylation ribozyme variant] | 3.86 | 9.28 | 3.9 | 58.1 | 6.75 | 5.92 |
| CCCCACUUCACGCAAUCGGUC [Fam1B.1 aminoacylation ribozyme variant] | 2.61 | 2.44 | 2.06 | 7.33 | 2.31 | 4.55 |
| AAGUAUGCUAAUAGUCGGAAG [Fam3.1 aminoacylation ribozyme variant] | 1.29 | 1.42 | 1.64 | 11.1 | 1.72 | 4.24 |
| GAACUUCAAACAAUCGGUCUG [Fam1A.1 aminoacylation ribozyme variant] | 1.66 | 2.4 | 1.85 | 65.3 | 1.7 | 35.8 |
| CUACUUUAAACAGUCGGUCUG [Fam1A.1 aminoacylation ribozyme variant] | 0.845 | 0.812 | 0.837 | 0.582 | 0.765 | 0.651 |
| CUACUUCAGACAAGCGGUCUG [Fam1A.1 aminoacylation ribozyme variant] | 0.96 | 0.966 | 0.839 | 0.263 | 1.26 | 0.406 |
| CAACACUUCAAGCAAGCGGUC [Fam1B.1 aminoacylation ribozyme variant] | 0.953 | 1.25 | 1.1 | 0.831 | 1.24 | 0.593 |
| UGACACUUCAAGCAAUCGGUC [Fam1B.1 aminoacylation ribozyme variant] | 1.37 | 1.89 | 1.84 | 21.5 | 1.33 | 14.5 |
| AUUCCCCUAGGUCUUCGGGUG [Fam2.2 aminoacylation ribozyme variant] | 13.9 | 26.7 | 13.7 | 127 | 19.3 | 21.8 |
| AAGUUGGCUUAUAGUCGCAAG [Fam3.1 aminoacylation ribozyme variant] | 1.61 | 1.64 | 1.59 | 2.35 | 1.94 | 1.7 |
| AAGUUUGCUAUUAGUCGCAAA [Fam3.1 aminoacylation ribozyme variant] | 1.35 | 1.47 | 1.52 | 1.58 | 1.84 | 1.74 |

Source: the supplement of paper PMC9233669
